Data on 5 molecules can be found in patent US8450284B2, “Coiled-coil lipopeptide helical bundles and synthetic virus-like particles” (Universitaet Zuerich, priority 2006, dated 2013).

Values joined by “and” are separate entries in the source; they are usually repeats but may differ in a detail not shown here. Identical values can stand only once. Ends that are not written are not given here.

In data set [1] the test system is Rabbits. The data set is described as follows: Immunization of rabbits, ELISA for antibodies binding the conjugate used for immunization (Table 1). Type of data set: in vivo, rabbit. The note with it: 150 μg conjugate, ELISA on the immunogen; for log10 (Endpoint titers) 2°: after first booster (serum day 38); for log10 (Endpoint titers) 3°: after second booster (serum day 66), rabbits in groups of two, each group given one conjugate. As for the experimental part: (§1) Rabbits (groups of two) were each immunized with 150 μg of one conjugate, reconstituted and equilibrated for at least 1 h at r.t. in either 400 μl PBS (10 mM sodium phosphate, 154 mM NaCl, pH 7.2), or with Freund's adjuvant (Freund's complete adjuvant (FA) for primary and Freund's incomplete adjuvant (FIA) for booster immunizations). Immunizations were performed on days 0, 28 and 56. Sera were collected on days 14, 38 and 66. The sera were analyzed by enzyme-linked immunosorbent assay (ELISA), to detect antibodies that bind to the conjugates used for immunizations.
(§2) ELISA microtiter-plates (Nunc Immunoplates Polysorb F96) were coated overnight with a 5 μg/ml solution of each antigen in PBS. The wells were then washed with PBS containing 0.05% Tween 20 (PBST) and blocked with PBS containing 5% skimmed milk powder for 1 h at r.t. After blocking, the wells were washed three times with PBST and incubated with serial dilutions of rabbit serum in PBS containing 0.05% Tween 20 and 0.5% skimmed milk powder (MPBST) for 2.5 h at r.t., followed by three washes with PBST. The plates were then incubated with alkaline phosphatase-conjugated mouse anti-rabbit IgG antibody (Sigma), diluted 1:20000 in MPBST for 1 h at r.t., washed again three times with PBST and incubated in the dark with a 1 mg/ml solution of p-nitrophenyl phosphate (Sigma) in substrate buffer (50 mM sodium carbonate buffer, 1 mM MgCl2, pH 9.6) at r.t. The absorbance was read after an appropriate time at 405 nm using a Bio-Rad Model 3550 microplate reader.

For data set [2], the system named is Rabbits. Briefly: Immunization of rabbits, ELISA cross-reaction with the same antigen attached to a different LBB (Table 2). Type of data set: in vivo, rabbit. The note with it: for Endpoint titers (log10) 3°: after second booster. As for the experimental part:
as §1
The specificity of each hapten specific immune response was also analyzed by ELISA (Table 2). Here the ability of antibodies elicited by each conjugate to cross-react with the same antigen attached to a different LBB was measured.
as §2

Data set [3] is described as follows: Far UV circular dichroism spectroscopy (CONTIN analysis, thermal denaturation). Type of data set: physicochemical. As for the experimental part:
Far ultraviolet circular dichroism (CD) spectra were measured at r.t. using a Jasco J-715 spectropolarimeter and a 0.1 cm path length quartz cell. Peptide 5 solution (50 μM) and lipopeptide 4 solution (35.7 μM) were prepared in TRIS buffer (10 mM TrisHCl, 90 mM NaCl, pH 7.4) and concentrations were determined by phosphate or amino acid analysis, as appropriate. Scan speeds of 10-100 nm/min, 1-2 second response times and a 1 nm spectral bandwidth were employed and spectra were collected at a minimum resolution of 0.5 nm. After subtraction of the blank, the spectral values were reported as mean residue ellipticity [deg. cm^2/dmol] and the lipid moiety was ignored when calculating the mean residue molecular weight.
CD spectra of low concentration samples of lipopeptide 4 (2-40 μM) were measured at 20° C. with a Jasco J-810 spectropolarimeter using a 1 cm path length quartz cell. Lipopeptide solutions were prepared in PBS (10 mM Na2HPO4, 90 mM NaCl, pH 7.4) and concentrations were determined by phosphate analysis. Scan speeds of 10 nm/min, 4 second response time and a 2 nm spectral bandwidth were employed and spectra were collected at a minimum resolution of 0.5 nm. Data were elaborated as described above.

The mark [4] stands for this setting: far UV CD at room temperature, FIG. 6.

As for “LBB6-LY-CH: conjugate of lipopeptide 6 with LY-CH-HMB (GGAVSKVLHLEGEVNKIKSALLSTNKAVVSLSNGVSVLTSKVLDLKNYIDKQC; also: conjugate of lipopeptide 6 with LY-CH-HMB)”, in the data set with Rabbits [1] (two rabbits (a, b)), the “log10 (Endpoint titers) 2°” value came to 5.11. For the same molecule, the “log10 (Endpoint titers) 1°” value in the data set on Rabbits [1] (after primary immunization (serum day 14), two rabbits (a, b)) is 3.90 and 4.20. Also, in the data set with Rabbits [2] (ELISA antigen LBB7-LY-CH), the “Endpoint titers (log10) 3°” value was 5.41 and 5.71.

For the molecule “LBB7-LY-CH: conjugate of lipopeptide 7 with LY-CH-HMB (SGIKKEIEAIKKEQEAIKKKIEAIERMLQLTVWGIKQLQARVLAVERYLGDCG; also: conjugate of lipopeptide 7 with LY-CH-HMB)”, the “log10 (Endpoint titers) 3°” value with Rabbits [1] is 4.41 and 4.11. Further, in the data set on Rabbits [2] (ELISA antigen LBB6-LY-CH, after first booster), the “Endpoint titers (log10) 2°” value was 5.01 and 4.71. For the same molecule, in the data set with Rabbits [2] (ELISA antigen LBB6-LY-CH), the “Endpoint titers (log10) 3°” value was found to be 5.01.

“peptide 5: same peptide sequence as lipopeptide 4 but lacks the phospholipid and linker (GGAVSKVLHLEGEVNKIKSALLSTNKAVVSLSNGVSVLTSKVLDLKNYIDKQ; derived from RSV F glycoprotein)”: in data set [3] (setting [4]), the “aperiodic structure content (CONTIN)” value was found to be 42% and the “β-sheet content (CONTIN)” value came out at 25%. Also, the “α-helix content (CONTIN)” value in data set [3] (far UV CD at room temperature, pH 7.4, FIG. 6) is listed as 33%. In addition, the “mid point of thermal denaturation transition” value in data set [3] (peptide concentration 35 μM) is roughly 40 °C.

B1: LBB6-12: conjugate of lipopeptide 6 with peptide 12 (conjugate)
chain: GGAVSKVLHLEGEVNKIKSALLSTNKAVVSLSNGVSVLTSKVLDLKNYIDKQC
peptide: NCRKSIHIGPGRAFYTTGCG
modifications: cyclised or stapled
On to B1, for which, in the data set with Rabbits [1], the “log10 (Endpoint titers) 3°” value is 5.01 and 4.71.

B2: LBB7-12: conjugate of lipopeptide 7 with peptide 12 (conjugate)
chain: SGIKKEIEAIKKEQEAIKKKIEAIERMLQLTVWGIKQLQARVLAVERYLGDCG
peptide: NCRKSIHIGPGRAFYTTGCG
modifications: cyclised or stapled
For the molecule B2, the “log10 (Endpoint titers) 2°” value in the data set on Rabbits [1] (two rabbits (a, b)) was 4.41 and 4.11. In addition, the “log10 (Endpoint titers) 3°” value in the data set on Rabbits [1] is 4.41 and 4.11. In addition, the “Endpoint titers (log10) 1°” value in the data set with Rabbits [2] (ELISA antigen LBB6-12, after primary immunization) is less than 1.70.
